Source: paper PMC10954734, “Structure of antiviral drug bulevirtide bound to hepatitis B and D virus receptor protein NTCP” (Nature Communications, 2024)

Tests used:
[1] = system: SVPs from patient ID1 (HBV GtD); assay: Binding of nanodisc-reconstituted NTCP-eYFP to SVPs of patient ID1 (GtD); conditions: 25–100 nM
Protocol: (§1) The lipids were then mixed with detergent-purified NTCP and incubated at room temperature for 5 min with gentle agitation. Next, membrane scaffold protein (MSP1D1) was added to the mixture and incubated for 20 min at room temperature. […] Bio-Beads were removed by passing through a gravity column (Bio-Rad), and the mixture was briefly spun at 4000 × g at 4 °C to remove excess lipids. […] Peak fractions containing nanodisc-reconstituted NTCP were collected and concentrated.
(§2) Subviral particles (SVPs) were isolated from plasma of two chronic HBV-infected patients by three consecutive ultracentrifugation steps according to published protocols[13]. Briefly, SVP were separated from virions using rate zonal ultracentrifugation through a sucrose density gradient. SVP-containing fractions were pooled and further purified using caesium chloride (CsCl) flotation ultracentrifugation. Pooled SVP-fractions were further purified using a second sucrose density gradient and concentrated by ultrafiltration. […] For fluorescence measurement, 100 μL HBS buffer was added to each well and the fluorescence intensity of eYFP was detected at 485 nm excitation and 535 nm emission on a fluorescence microplate reader (TECAN Life Sciences).

[2] = system: SVPs from patient K826 (HBV GtA); assay: Binding of nanodisc-reconstituted NTCP-eYFP to SVPs of patient K826 (GtA); conditions: 25–100 nM
Protocol: as §1, §2

B1: NTCP G158R: nanodisc-reconstituted NTCP-eYFP variant carrying the mutation G158R (protein)
chain: MEAHNASAPFNFTLPPNFGKRPTDLALSVILVFMLFFIMLSLGCTMEFSKIKAHLWKPKGLAIALVAQYGIMPLTAFVLGKVFRLKNIEALAILVCGCSPGGNLSNVFSLAMKGDMNLSIVMTTCSTFCALGMMPLLLYIYSRGIYDGDLKDKVPYKRIVISLVLVLIPCTIGIVLKSKRPQYMRYVIKGGMIIILLCSVAVTVLSAINVGKSIMFAMTPLLIATSSLMPFIGFLLGYVLSALFCLNGRCRRTVSMETGCQNVQLCSTILNVAFPPEVIGPLFFFPLLYMIFQLGEGLLLIAIFWCYEKFKTPKDKTKMIYTAATTEETIPGALGNGTYKGEDCSPCTA
modifications: left off: eYFP, C-terminal, kept | rho-1D4, C-terminal, state not stated
- binding to GtD SVPs (in words) [1]: abolished binding to the SVPs
- binding to GtA SVPs (in words) [2]: abolished binding to the SVPs
